Results reported in paper PMC11033526 (Journal of Biochemistry, 2023).
One block for each binder: values may come before it. No end group written: not given here. *: point of attachment. Biotin = O=C1N[C@H]2[C@H](CS[C@H]2CCCCC(=O)*)N1

Experiments:
mouse calmodulin [1] = target: T1, mouse calmodulin (mouse, UniProt P0DP26 1-149); test: pull-down; His-tagged ySUMO-fusion protein on Ni-NTA Superflow, ySUMO portion denatured with 6 M guanidine chloride; 0.6 μM mCaM in +Ca2+ buffer (150 mM NaCl, 0.1% Tween 20, 1 mM CaCl2, pH 7.5), 4°C, 2 h; CaM detected by western blot; conditions: both partners purified
T1 construct: also called mCaM; CaM; source: E. coli BL21 (DE3) pLysS, purified (Phenyl Sepharose)

mouse calmodulin [2] = target: T1, mouse calmodulin; test: SPR; Biacore 2000; biotinylated T1r peptides on a CAP chip (Biotin CAPture Kit); mCaM injected, 2-fold dilutions from 50 μM, +Ca2+ (1 mM CaCl2), 25°C, 30 μl/min; KD from equilibrium responses, 1:1 model; conditions: both partners purified

binding result (mouse calmodulin [1]): binds
B1: FLAG-ySUMO-mT1r2 CT (domain or fragment)
chain: PKCYMILFYPERNTSAYFNSMIQGYTMRKS
notes: mouse T1r2, cytosolic C-terminal region (CT), residues 814-843; On the Ni-NTA beads the ySUMO portion was denatured with 6 M guanidine chloride before mCaM was added; also called ySUMO-fusion protein of the mT1r2 C-terminal region; source: E. coli BL21 (DE3), purified (Ni-NTA); not shown: FLAG, N-terminal, kept; ySUMO, N-terminal, kept; His8, C-terminal, kept

binding result (mouse calmodulin [1]): binds
B2: FLAG-ySUMO-mT1r1 CT (domain or fragment)
chain: PKCYVILCRPELNNTEHFQASIQDYTRRCGTT
notes: mouse T1r1, cytosolic C-terminal region (CT), residues 811-842; On the Ni-NTA beads the ySUMO portion was denatured with 6 M guanidine chloride before mCaM was added; also called ySUMO-fusion protein of the mT1r1 C-terminal region; source: E. coli BL21 (DE3), purified (Ni-NTA); not shown: FLAG, N-terminal, kept; ySUMO, N-terminal, kept; His8, C-terminal, kept

Kd (mouse calmodulin [2]): 27 µM
B3: biotin-mT1r2 CT peptide (cytosolic C-terminal region of mouse taste receptor type 1 subunit 2) (peptide)
peptide: Biotin-GGSGGSPKCYMILFYPERNTSAYFNSMIQGYTMRKS
notes: N-terminal linker segment; mouse T1r2, cytosolic C-terminal region as defined by TMHMM, residues 814-843; source: synthetic peptide (Hokkaido System Science, ~90% purity)
